Literature values, collected in article PMC4221657.
pKd: −log10 of the molar value.

What was measured:
[1] = target: VPAC2 receptor (Homo sapiens) (UniProt P41587)
[2] = target: PAC1 receptor (Homo sapiens) (UniProt P41586)
[3] = target: VPAC1 receptor (Homo sapiens) (UniProt P32241)
Sequence of UniProt P32241 (P32241 31-457): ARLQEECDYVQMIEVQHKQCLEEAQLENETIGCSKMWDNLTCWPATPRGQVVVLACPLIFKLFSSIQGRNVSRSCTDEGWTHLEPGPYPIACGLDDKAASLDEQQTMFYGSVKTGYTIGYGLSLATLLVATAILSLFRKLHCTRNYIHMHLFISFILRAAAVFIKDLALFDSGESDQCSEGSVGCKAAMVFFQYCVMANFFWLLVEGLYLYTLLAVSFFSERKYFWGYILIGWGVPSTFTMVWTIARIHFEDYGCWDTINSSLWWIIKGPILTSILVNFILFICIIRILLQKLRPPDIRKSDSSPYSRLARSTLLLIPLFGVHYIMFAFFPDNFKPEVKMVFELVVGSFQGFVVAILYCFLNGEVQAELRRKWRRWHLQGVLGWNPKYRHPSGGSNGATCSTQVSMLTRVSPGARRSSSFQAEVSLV

Sequence of UniProt P41586 (P41586 21-468): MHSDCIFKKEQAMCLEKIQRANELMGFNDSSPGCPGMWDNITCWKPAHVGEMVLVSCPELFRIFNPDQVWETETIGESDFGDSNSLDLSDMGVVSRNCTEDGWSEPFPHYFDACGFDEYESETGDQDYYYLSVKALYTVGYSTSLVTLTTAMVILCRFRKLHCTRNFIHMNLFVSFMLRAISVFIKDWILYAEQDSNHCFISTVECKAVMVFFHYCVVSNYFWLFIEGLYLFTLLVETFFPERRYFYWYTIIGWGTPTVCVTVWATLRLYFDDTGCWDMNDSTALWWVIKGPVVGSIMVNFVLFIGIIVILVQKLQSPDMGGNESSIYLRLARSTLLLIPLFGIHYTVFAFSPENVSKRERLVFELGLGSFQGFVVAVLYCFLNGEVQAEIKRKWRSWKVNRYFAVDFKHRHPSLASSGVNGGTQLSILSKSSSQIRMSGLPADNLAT
Sequence of UniProt P41587 (P41587 24-438): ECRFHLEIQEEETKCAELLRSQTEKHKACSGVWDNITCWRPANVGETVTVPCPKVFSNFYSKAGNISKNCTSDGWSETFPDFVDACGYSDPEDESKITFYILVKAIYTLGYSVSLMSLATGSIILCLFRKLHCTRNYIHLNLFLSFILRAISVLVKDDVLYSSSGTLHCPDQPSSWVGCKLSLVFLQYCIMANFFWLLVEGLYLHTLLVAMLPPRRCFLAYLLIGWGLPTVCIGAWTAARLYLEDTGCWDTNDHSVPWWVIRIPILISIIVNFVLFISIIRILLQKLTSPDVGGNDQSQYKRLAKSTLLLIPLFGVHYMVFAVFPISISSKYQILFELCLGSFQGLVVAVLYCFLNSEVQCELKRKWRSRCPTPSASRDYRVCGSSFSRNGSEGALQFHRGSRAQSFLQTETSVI

- pKd [1]: 9.00
- pKd [2]: 9.30
- pKd [3]: 9.00
Substance: PACAP38 (from UniProt P18509)
